According to patent US20040175362A1:

Target: coxsackie-adenovirus receptor (CAR) (human) (UniProt P78310)
Experiment: cell-based or functional assay

Sequence of UniProt P78310 (P78310 20-365): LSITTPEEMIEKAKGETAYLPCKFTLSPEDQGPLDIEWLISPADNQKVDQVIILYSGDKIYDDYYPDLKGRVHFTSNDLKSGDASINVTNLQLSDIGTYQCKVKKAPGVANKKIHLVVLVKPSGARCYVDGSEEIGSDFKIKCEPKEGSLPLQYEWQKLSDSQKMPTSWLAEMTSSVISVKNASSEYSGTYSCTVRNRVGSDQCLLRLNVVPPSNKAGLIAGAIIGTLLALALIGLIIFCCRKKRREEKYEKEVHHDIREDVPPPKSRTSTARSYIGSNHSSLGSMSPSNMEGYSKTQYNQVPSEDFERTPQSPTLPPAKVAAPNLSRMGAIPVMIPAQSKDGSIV

| Substance | gene expression blocked by recombinant Ad5 fiber knob, Ad5lucRGD on 293 cells | gene transfer blocked by knob protein, Ad5lucRGD on primary ovarian cancer cells, MOI 1 pfu/cell | luciferase activity blocked by purified fiber knob, Ad5lucRGD on SKOV3.1p1 cells | gene transfer blocked by purified fiber knob, AdCMVLuc on SKOV3.1p1 cells | luciferase activity blocked by recombinant Ad5 fiber knob, AdCMVLuc on 293 cells |
| --- | --- | --- | --- | --- | --- |
| RGD-modified Ad5 fiber (… in the HI loop of the knob) as carried by the virions of Ad5lucRGD (from UniProt P11818 1-546; P11818 547-581) | 40 to 60% | 20% | 20% | – | – |
| wild type Ad5 fiber as carried by the virions of AdCMVLuc (from UniProt P11818 1-581) | – | – | – | > 90% | 85 to 93% |
